Results from patent US11124785B2, “Rothia subtilisins, S8A family proteases, as therapeutic enzymes for application in gluten intolerance disorders” (TRUSTEES OF BOSTON UNIVERSITY, priority 2016, dated 2021).

How the values were obtained:
[1] = system: R. mucilaginosa enzyme preparation (Rmep); test: Inhibitor profile of Rmep (Suc-AAPF-pNA hydrolysis); type: biochemical, Rothia mucilaginosa; conditions: for inhibition of Rmep activity: AEBSF 10 mM, aprotinin 0.08 mM, E-64 0.1 mM, EDTA 1.5 mM, PMSF 1 mM, Rmep 5.7 μg/ml, Suc-AAPF-pNA
Procedure: Inhibitors AEBSF, Aprotinin, E-64, EDTA, PMSF and Eglin C were tested at final concentrations of 10 mM, 0.08 mM, 0.1 mM, 1.5 mM, 1 mM, and 0.06 μM, respectively. Rmep was added at a final concentration of 5.7 μg/ml. The percent inhibition was determined from the ratio of the initial velocities of hydrolysis of Suc-AAPF-pNA (SEQ ID NO: 4) in the absence and presence of inhibitor.
(§1) Hydrolysis of paranitroanilide-derivatized substrates—Paranitroanilide (pNA)-derivatized tripeptide substrates were chemically synthesized at >90% purity (21st Century Biochemicals, Marlborough, Mass.). The substrates obtained were Z-YPQ-pNA, Z-QQP-pNA, Z-LPY-pNA, Z-PFP-pNA, Z-PPF-pNA, where Z=benzyloxycarbonyl, Y=tyrosine, P=proline, Q=glutamine, L=leucine, and F=phenylalanine Suc-AAPF-pNA (SEQ ID NO: 4) was obtained from Sigma, where Suc=N-succinyl and A=alanine. The peptides were dissolved in 75-100% DMSO at 10 mM, and were used at a final concentration of 200 μM in 50 mM TrisHCl pH 8.0. Purified Rothia enzyme or subtilisin A from Bacillus licheniformis (Sigma) were tested at final concentrations of 1 μg/ml. Some experiments were conducted in the presence of inhibitors 4-(2-Aminoethyl) benzenesulfonyl fluoride (AEBSF), Aprotinin, E-64, EDTA, phenylmethanesulfonyl fluoride (PMSF) and Eglin C, which were tested at final concentrations of 10 mM, 0.08 mM, 0.1 mM, 1.5 mM, 1 mM, and 0.06-1.2 μM, respectively. Enzymes were preincubated with the inhibitors for 20 min before adding Suc-AAPF-pNA (SEQ ID NO: 4). Substrate hydrolysis was monitored for 10 h at 405 nm using a Genios microtiter plate reader (Tecan, Männedorf, Switzerland) in the kinetic mode at 37° C.

[2] = system: Suc-AAPF-pNA; test: Hydrolysis of paranitroanilide-derivatized substrate Suc-AAPF-pNA; type: biochemical; conditions: substrate 200 μM; enzyme 1 μg/ml (NattoK: dilution series); 50 mM TrisHCl pH 8.0, 37° C.
Procedure: FIG. 4A and FIG. 4B are representative graphs of the hydrolysis of the substrates: Suc-AAPF-pNA (SEQ ID NO: 4), Z-YPQ-pNA, and Z-LPY-pNA, each at 200 μM, by Rmep and subtilisin A, respectively, each at 1 μg/ml.
FIG. 8C show a representative graph of the hydrolysis of the substrate, Suc-AAPF-pNA (SEQ ID NO: 4), with a dilution series of NattoK. Suc-AAPF-pNA (SEQ ID NO: 4) was incubated […]. Hydrolysis was measured at 405 nm.
as §1

[3] = system: mixed gliadins; test: Degradation of mixed gliadins (SDS-PAGE); type: biochemical, wheat; conditions: gliadins 250 μg/ml; NattoK 57 μg/ml 0-120 min and dilution series 3.5-0.06 μg/ml 30 min
Procedure: FIG. 5A is a representative SDS-PAGE gel of non-digested gliadins (control) and Rmep-treated gliadins. Gliadins (250 μg/ml) in 50 mM Tris/HCl pH 8.0 were incubated with Rmep at 57 μg/ml. After 0, 15 min, 30 min and 2 h incubation 100 μl aliquots were removed, boiled and analyzed by SDS-PAGE and stained with COOMASSIE Brilliant Blue. The bold arrow (left) points to the position of the major band in the gliadin preparation; the thin arrow (right) to the 125 kDa band in the Rmep preparation, and the dotted arrows (right) to the gliadin degradation fragments.
FIG. 6A is a representative SDS-PAGE gel of non-digested gliadins (control) and subtilisin A-treated gliadins. Gliadins (250 μg/ml) in 50 mM Tris/HCl pH 8.0 were incubated with subtilisin A at 57 μg/ml. Experiments were conducted as described in the legend of FIG. 5 with subtilisin A instead of Rmep.
FIG. 8A is a representative SDS-PAGE gel of non-digested gliadins (control) and NattoK-treated gliadins. Mixed gliadins (G, 250 μg/ml) were incubated with NattoK (57 μg/ml) for 0, 15, 30 and 120 min. Left four lanes: controls without enzyme or gliadins, respectively, each at t=0 and 120 min. Arrow points to the major components in the gliadin mixture represented by α and γ-gliadins containing most of the immunogenic epitopes.
(§2) Degradation of mixed gliadins and the 33-mer peptide—Mixed gliadins were obtained from Sigma. A synthetic highly immunogenic α-gliadin derived 33-mer peptide (26) was synthesized at a purity of >90% (21st Century Biochemicals). Mixed gliadins or the 33-mer peptide (each at final concentration 250 μg/ml) were incubated with Rmep or subtilisin A (each at 57 μg/ml) in 50 mM TrisHCl, pH 8.0. After t=0, 15 min, 30 min, and 2 h, 100 μl sample aliquots were removed and boiled. Gliadin degradation was assessed by 4-12% SDS-PAGE followed by Coomassie staining, and 33-mer degradation was determined by RP-HPLC.

[4] = system: α-gliadin derived 33-mer peptide; test: Degradation of the 33-mer peptide (RP-HPLC); type: biochemical; conditions: 33-mer 250 μg/ml, NattoK 57 μg/ml, 0-120 min; large fragment remained
Procedure: FIG. 8D is a representative chromatogram of the RP-HPLC analysis of the degradation of the gliadin-derived 33-mer (250 μg/ml) incubated for 0, 15, 30 and 120 min with NattoK 57 μg/ml).
as §2
Reversed-phase high performance liquid chromatography (RP-HPLC)—Separation of the 33-mer peptide and its fragments was achieved by RP-HPLC, using buffer A (0.1% trifluoroacetic acid) and buffer B (0.1% trifluoroacetic acid in 80% acetonitrile) at a gradient of 0-55% buffer B over 75 min time interval. The equipment used was an HPLC Model 715 (Gilson, Middleton, Wis.) and a C-18 column (TSK-GEL […], ODS-120T, TOSOHaas, Montgomeryville, Pa.) (22, 25).

[5] = system: R5 epitopes (QQPFP and related pentapeptides) in mixed gliadins; test: R5 ELISA, gluten epitope elimination in gliadin digests; type: biochemical; conditions: gliadins 250 μg/ml, NattoK 57 μg/ml, 0-120 min
Procedure: FIG. 8E and FIG. 8F show the assessment of the survival of epitopes in the gliadin-NattoK degradation mixture employing the R5 ELISA (FIG. 8E) or G12 ELISA (FIG. 8F) assays. Epitope abolishment in Mixed gliadins (250 μg/ml) were incubated with NattoK (57 μg/ml) for 0, 15, 30 and 120 min and then assayed by the R5 ELISA or G12 ELISA.
R5 and G12 ELISA assays—Gluten epitope elimination in the gliadin-Rmep and gliadin-subtilisin A digests was assessed using two sandwich ELISA assays employing the R5 monoclonal antibody (RIDASCREEN Gliadin, R-Biopharm, Darmstadt, Germany) or the G12 monoclonal antibody (AgraQuant® ELISA Gluten G12, Romer labs, Union, Mo.). To prevent high background values, the R5 plate wells were blocked with 1% skim milk in PBS prior to incubation with the samples. The assays were performed according to the manufacturers' instructions and as described (21, 24).
To further investigate this, the time courses of degradation of mixed gliadins and the highly immunogenic 33-mer α-gliadin peptide were determined. Furthermore, epitope elimination was monitored by two ELISA assays employing the R5 antibody recognizing QQPFP (SEQ ID NO: 40) and related pentapeptides (27, 28) and the G12 antibody recognizing QPQLPY (SEQ ID NO: 22) contained in the 33-mer peptide (29, 30). Data obtained with Rmep are shown in FIG. 5, and with subtilisin A in FIG. 6.

[6] = system: wheat ATI proteins; test: Degradation of amylase-trypsin inhibitors (SDS-PAGE); type: biochemical; conditions: ATIs 500 μg/ml
Procedure: (§3) FIGS. 15A-15F show effective ATI degradation by subtilisins from B. subtilis (nattokinase). […] ATI (500 μg/ml) incubated with Rmep from R. mucilaginosa (FIG. 15A) or nattokinase from B. subtilis (FIG. 15C) at 50, 25, or 10 μg/ml; FIGS. 15B and 15D, Gliadins (500 μg/ml) incubated with Rmep (FIG. 15B) or nattokinase (FIG. 15D) at 25 μg/ml. FIGS. 15E and 15F, ATIs incubated with control heat inactivated enzymes, Rmep (FIG. 15E) or nattokinase (FIG. 15F).
(§4) ATIs were isolated from wheat cultivars as described^3. They were incubated at a final concentration of 500 μg/ml with 10, 25 or 50 μg/ml Rmep (from R. mucilaginosa), or nattokinase (from B. subtilis). The controls incubations were carried out with heat-inactivated Rmep and nattokinase. Experiments were conducted in 50 mM Tris-HCl, pH 8.0. After 0, 15 min, 30 min, 1 h, and 4 h incubation, 20 μl aliquots were removed, mixed with SDS-sample buffer, heated at 85° C. for 5 min and analyzed by 4-12% SDS PAGE. Proteins were visualized with Coomassie Blue staining.

[7] = system: gliadins; test: Gliadin degradation control of Example 3 (SDS-PAGE); type: biochemical; conditions: gliadins 500 μg/ml, enzyme 25 μg/ml, pH 8.0
Procedure: as §3, §4

For `NCCc1ccc(S(=O)(=O)F)cc1` [AEBSF, 4-(2-Aminoethyl) benzenesulfonyl fluoride], the “inhibition of Rmep activity” value [1] was “inhibited effectively”.

`CC(C)C[C@H](NC(=O)[C@H]1O[C@@H]1C(=O)O)C(=O)NCCCCN=C(N)N` [E64] was tested, and the “inhibition of Rmep activity” value [1] was “not”.

With `O=C(O)CN(CCN(CC(=O)O)CC(=O)O)CC(=O)O` [EDTA, ethylenediaminetetraacetic acid] the “inhibition of Rmep activity” value [1] was “not”.

For `O=S(=O)(F)Cc1ccccc1` [PMSF, phenylmethanesulfonyl fluoride], the “inhibition of the Rothia subtilisin by PMSF” value ([1]; 1 mM PMSF, stated as embodiment) was 100% and the “inhibition of Rmep activity” value [1] was “inhibited effectively”.

With aprotinin the “inhibition of Rmep activity” value [1] was “partial inhibition”.

B1: NattoK: nattokinase, a 27.7 kDa subtilisin enzyme from B. subtilis, available in pure form as a dietary supplement (protein, listed as Bacillus subtilis)
chain: MRSKKLWISLLFALTLIFTMAFSNMSAQAAGKSSTEKKYIVGFKQTMSAMSSAKKKDVISEKGGKVQKQFKYVNAAAATLDEKAVKELKKDPSVAYVEEDHIAHEYAQSVPYGISQIKAPALHSQGYTGSNVKVAVIDSGIDSSHPDLNVRGGASFVPSETNPYQDGSSHGTHVAGTIAALNNSIGVLGVAPSASLYAVKVLDSTGSGQYSWIINGIEWAISNNMDVINMSLGGPTGSTALKTVVDKAVSSGIVVAAAAGNEGSSGSTSTVGYPAKYPSTIAVGAVNSSNQRASFSSVGSELDVMAPGVSIQSTLPGGTYGAYNGTSMATPHVAGAAALILSKHPTWTNAQVRDRLESTATYLGNSFYYGKGLINVQAAAQ
With B1 the “hydrolysis of Suc-AAPF-pNA” value [2] was “hydrolyzed”, the “degradation of mixed gliadins” value [3] was “degraded gliadins effectively” and the “degradation of the 33-mer peptide” value [4] was “degraded the 33-mer peptide”. The “abolishment of R5 epitopes” value [5] was “abolished”, the “ATIs degraded after 4 h incubation with 10 μg/ml enzyme” value ([6]; 10 μg/ml enzyme, 4 h) was “Approximately 50%” and the “ATIs degraded after 1 h incubation with 50 μg/ml enzyme” value ([6]; 50 μg/ml enzyme, 1 h) was “Approximately 50%”. For the same molecule, the “degradation of wheat ATI proteins” value ([6]; enzyme 10, 25 or 50 μg/ml, pH 8.0, up to 4 h) was “susceptible to proteolysis” and the degradation of gliadins [7] was “rapidly degraded”.
